According to the Immune Epitope Database (IEDB):

Tests used:
HLA-B*15:02 = experiment: IEDB peptide-MHC binding, purified MHC/competitive/fluorescence; filed as Kd, often an IC50 or EC50 that approximates it; ≥ and ≤ were set here for values at or beyond the usual limits of such assays
HLA-A*02:01 [1] = experiment: IEDB peptide-MHC binding, purified MHC/direct/fluorescence; filed as Kd, often an IC50 or EC50 that approximates it; ≥ and ≤ were set here for values at or beyond the usual limits of such assays; conditions: source organism: Orthohantavirus hantanense
HLA-A*02:11 = experiment: as above; conditions: source organism: Hantaan virus Q32
HLA-A*02:12 = experiment: as above; conditions: source organism: Hantaan virus Q32
HLA-A*02:19 = experiment: as above; conditions: source organism: Hantaan virus Q32
HLA-C*03:03 = experiment: as above
HLA-A*26:01 [2] = experiment: as above; conditions: source organism: Vibrio vulnificus CMCP6
HLA-A*26:02 = experiment: as above
HLA-C*07:02 = experiment: as above
HLA-B*27:05 = experiment: IEDB peptide-MHC binding, purified MHC/competitive/fluorescence; filed as Kd, often an IC50 or EC50 that approximates it; ≥ and ≤ were set here for values at or beyond the usual limits of such assays
HLA-A*02:01 [3] = experiment: as above; conditions: source organism: Vaccinia virus WR
HLA-C*05:01 = experiment: IEDB peptide-MHC binding, purified MHC/direct/fluorescence; filed as Kd, often an IC50 or EC50 that approximates it; ≥ and ≤ were set here for values at or beyond the usual limits of such assays
HLA-A*26:01 [4] = experiment: IEDB peptide-MHC binding, purified MHC/competitive/fluorescence; filed as Kd, often an IC50 or EC50 that approximates it; ≥ and ≤ were set here for values at or beyond the usual limits of such assays; conditions: source organism: Homo sapiens
HLA-B*15:01 = experiment: as above; conditions: source organism: Homo sapiens
HLA-B*18:01 = experiment: as above; conditions: source organism: Homo sapiens
HLA-B*27:03 = experiment: as above; conditions: source organism: Homo sapiens
HLA-B*39:01 = experiment: as above; conditions: source organism: Homo sapiens
HLA-B*46:01 = experiment: as above; conditions: source organism: Homo sapiens
HLA-B*51:01 = experiment: as above
HLA-B*57:01 = experiment: as above; conditions: source organism: Homo sapiens
HLA-B*48:01 = experiment: as above
HLA-A*68:23 = experiment: as above
HLA-B*15:42 = experiment: as above
HLA-B*45:06 = experiment: as above
HLA-B*83:01 = experiment: as above
HLA-C*14:02 = experiment: as above
HLA-B*07:02 = experiment: as above; conditions: source organism: Influenza A virus (A/Kayano/57(H2N2))
HLA-B*35:01 = experiment: as above; conditions: source organism: Influenza A virus (A/Kayano/57(H2N2))
HLA-A*01:01 = experiment: as above; conditions: source organism: Staphylococcus aureus subsp. aureus N315
HLA-A*69:01 = experiment: IEDB peptide-MHC binding, purified MHC/direct/fluorescence; filed as Kd, often an IC50 or EC50 that approximates it; ≥ and ≤ were set here for values at or beyond the usual limits of such assays; conditions: source organism: Mycobacterium tuberculosis
[5] = source organism: Influenza A virus (A/Kayano/57(H2N2))
[6] = source organism: Staphylococcus aureus subsp. aureus N315

## EQRAGYQAF
HLA-B*15:02; source organism: Vibrio vulnificus YJ016
  Kd: 117 nM

## FMFNDLLKL
HLA-A*02:01 [1]
  Kd: ≤ 1 nM
HLA-A*02:11
  Kd: ≤ 1 nM
HLA-A*02:12
  Kd: 3 nM
HLA-A*02:19
  Kd: 15 nM
HLA-C*03:03; source organism: Orthohantavirus
  Kd: 1250 nM

## HVIASMRHF
HLA-A*26:01 [2]
  Kd: 2 nM
HLA-A*26:02; source organism: Vibrio vulnificus CMCP6
  Kd: ≤ 1 nM

## HYNAFQWAI
HLA-C*07:02; source organism: Acanthisitta chloris
  Kd: 29 nM

## LVALTLTSY
HLA-A*26:02; source organism: Yellow fever virus
  Kd: 180 nM

## KRMGVQVQR
HLA-B*27:05; source organism: Influenza A virus (A/environment/Hong Kong/437-10/99 (H5N1))
  Kd: 99.8 nM

## FLHESDPMV
HLA-C*03:03; source organism: Vaccinia virus WR
  Kd: ≥ 20000 nM
HLA-A*02:01 [3]
  Kd: 1.7 nM

## YGLERLAAM
HLA-C*07:02; source organism: human gammaherpesvirus 4
  Kd: 18 nM

## LTDSSTLLV
HLA-C*05:01; source organism: Homo sapiens
  Kd: 8 nM
HLA-A*26:01 [4]
  Kd: ≥ 20000 nM
HLA-B*15:01
  Kd: ≥ 20000 nM
HLA-B*18:01
  Kd: ≥ 20000 nM
HLA-B*27:03
  Kd: ≥ 20000 nM
HLA-B*39:01
  Kd: ≥ 20000 nM
HLA-B*46:01
  Kd: ≥ 20000 nM
HLA-B*51:01; source organism: Homo sapiens
  Kd: ≥ 20000 nM
HLA-B*57:01
  Kd: ≥ 20000 nM

## MQALGHPIL
HLA-B*48:01; source organism: Photobacterium angustum S14
  Kd: 175 nM

## LRAAIELPL
HLA-B*27:05; source organism: Mycobacterium tuberculosis H37Ra
  Kd: 160 nM

## RLPKDFVDL
HLA-A*68:23; source organism: Homo sapiens
  Kd: 67.7 nM
HLA-B*15:42; source organism: Homo sapiens
  Kd: ≥ 5000 nM
HLA-B*45:06; source organism: Homo sapiens
  Kd: ≥ 5000 nM
HLA-B*83:01; source organism: Homo sapiens
  Kd: ≥ 5000 nM
HLA-C*14:02; source organism: Homo sapiens
  Kd: 112 nM

## VQHAPQVSL
HLA-B*48:01; source organism: Giardia lamblia ATCC 50803
  Kd: 137 nM

## LPFHNVHPL
HLA-C*05:01; [5]
  Kd: ≥ 20000 nM
HLA-C*07:02; [5]
  Kd: 2490 nM
HLA-B*07:02
  Kd: 5.6 nM
HLA-B*35:01
  Kd: ≤ 0.1 nM
HLA-B*51:01; [5]
  Kd: 202 nM

## SQMPTSLNF
HLA-B*15:02; source organism: Escherichia coli str. K-12 substr. MG1655
  Kd: 23.8 nM

## YTIGIGAFY
HLA-A*01:01
  Kd: 1.5 nM
HLA-A*68:23; [6]
  Kd: ≤ 0.1 nM
HLA-B*15:42; [6]
  Kd: ≥ 5000 nM
HLA-B*45:06; [6]
  Kd: ≥ 5000 nM
HLA-B*83:01; [6]
  Kd: ≥ 5000 nM
HLA-C*14:02; [6]
  Kd: 9.4 nM

## ALMDYGFRV
HLA-A*69:01
  Kd: 42 nM
HLA-C*03:03; source organism: Mycobacterium tuberculosis variant bovis BCG str. Pasteur 1173P2
  Kd: ≥ 20000 nM

## SQDDNYFTL
HLA-C*03:03; source organism: Giardia lamblia P15
  Kd: 266 nM

## WLVNTYQNY
HLA-B*15:02; source organism: Cryptosporidium parvum
  Kd: 80.2 nM
